Source: patent publication US20220025022A1 (published 2022)

T1: CFA/I fimbrial protein (with adhesin subunit CfaE) on ETEC strain H10407 (enterotoxigenic Escherichia coli (ETEC), UniProt P25734 1-360)
T1 sequence (looked up): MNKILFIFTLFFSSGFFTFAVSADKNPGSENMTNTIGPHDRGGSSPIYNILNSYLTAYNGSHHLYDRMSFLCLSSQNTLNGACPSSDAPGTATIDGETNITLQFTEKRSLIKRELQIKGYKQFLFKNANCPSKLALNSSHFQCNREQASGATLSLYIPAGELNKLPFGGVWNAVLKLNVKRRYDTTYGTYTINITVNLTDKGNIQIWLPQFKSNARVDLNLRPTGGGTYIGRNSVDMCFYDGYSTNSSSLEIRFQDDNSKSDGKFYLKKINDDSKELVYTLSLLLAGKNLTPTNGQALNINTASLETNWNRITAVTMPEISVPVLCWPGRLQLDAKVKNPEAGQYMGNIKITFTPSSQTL

T2: MBP-CfaE-N (recombinant N-terminal adhesin domain of CfaE fused to an MBP tag) (enterotoxigenic Escherichia coli (ETEC), UniProt P25734 24-205, Biotinylated for SPR; FITC or Alexa dye labelled for flow cytometry; sites not stated.)
T2 construct: Used plain (ELISA), biotinylated (SPR) and FITC/Alexa-labelled (flow cytometry); GenBank M55661 is printed for the nucleic acid; also called recombinant N-terminal truncated CfaE protein; N-terminal CfaE protein
T2 sequence: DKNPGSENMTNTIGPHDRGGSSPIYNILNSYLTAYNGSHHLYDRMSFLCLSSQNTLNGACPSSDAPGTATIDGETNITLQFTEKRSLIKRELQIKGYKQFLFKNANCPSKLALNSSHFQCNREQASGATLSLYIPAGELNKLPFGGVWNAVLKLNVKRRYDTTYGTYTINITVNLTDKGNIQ

T3: recombinant CS2 (N-terminal adhesin domain of CotD, MBP-tagged) (enterotoxigenic Escherichia coli (ETEC))
T3 construct: also called CotD, CS2; colonization factor antigen CS2
T3 chain: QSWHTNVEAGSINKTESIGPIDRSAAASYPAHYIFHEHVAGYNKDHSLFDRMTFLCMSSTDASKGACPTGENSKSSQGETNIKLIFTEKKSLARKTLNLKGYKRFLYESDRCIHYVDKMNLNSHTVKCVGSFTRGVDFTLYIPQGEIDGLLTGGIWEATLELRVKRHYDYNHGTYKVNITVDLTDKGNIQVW


Columns and labels:
[1] = molecular target: CS19 on ETEC strain #204648 (enterotoxigenic Escherichia coli (ETEC)); test: cell-based or functional assay
[2] = molecular target: CS14 on ETEC strain #400599 (enterotoxigenic Escherichia coli (ETEC)); test: cell-based or functional assay
[3] = molecular target: CS21 on ETEC strain #100171 (enterotoxigenic Escherichia coli (ETEC)); test: cell-based or functional assay
[4] = molecular target: CS17 on ETEC strain (enterotoxigenic Escherichia coli (ETEC)); test: cell-based or functional assay
[5] = molecular target: CS4 on ETEC strain (enterotoxigenic Escherichia coli (ETEC)); test: cell-based or functional assay
[6] = molecular target: CS2 on ETEC strain #201546 (enterotoxigenic Escherichia coli (ETEC)); test: cell-based or functional assay
[7] = molecular target: T1, CFA/I fimbrial protein (with adhesin …); test: cell-based or functional assay
[8] = molecular target: CS1 on ETEC strain #200145 (enterotoxigenic Escherichia coli (ETEC)); test: cell-based or functional assay
[9] = molecular target: CS6 on ETEC strain #100001 (enterotoxigenic Escherichia coli (ETEC)); test: cell-based or functional assay
[10] = molecular target: CS3 on ETEC strain #100483 (enterotoxigenic Escherichia coli (ETEC)); test: cell-based or functional assay
[11] = molecular target: CS5 on ETEC strain #204348 (enterotoxigenic Escherichia coli (ETEC)); test: cell-based or functional assay
[12] = molecular target: T2, MBP-CfaE-N (recombinant N-terminal …); test: SPR (Biacore T200), CfaE on CM5 chip, VHH injected, 25 C, 1:1 model
Protocol: Surface plasmon resonance (SPR) technology was used to assess the binding properties of the VHH molecules (BIACORE® T200 instrument; GE Healthcare). Biotinylated CfaE protein was coupled to a CM5 sensor chip using standard amine coupling chemistry. Various concentrations of lead nanobodies ranging from 1 to 10 ug were injected over the chip surface at a flow rate of 30 l/min. An association step of 60 s was followed by a dissociation step of 180 s, and the final dissociation step was 600 s. Regeneration of the sensor chip surface was accomplished using 3 M MgCl₂. Experiments were performed at 25° C. Kinetic data were analyzed using BIACORE® T200 Evaluation (version 3.0) software and a 1:1 binding model. All chemicals for the BIACORE® experiment were purchased from GE Healthcare.

[13] = molecular target: T3, recombinant CS2 (N-terminal adhesin …); test: ELISA on coated recombinant antigen

Binder | MRHA IC100 [1] | MRHA IC100 [2] | MRHA IC100 [3] | MRHA IC100 [4] | MRHA IC100 [5] | MRHA IC100 [6] | MRHA IC100 [7] | MRHA IC100 [8] | MRHA IC100 [9] | MRHA IC100 [10] | MRHA IC100 [11] | Kd [12] | koff [12] | kon [12] | binding result [13]
VHH antibody 2R215 (monomeric) (VHH) VHH: QVQLQESGGGLVQAGGSLRLSCAASGNIFQDAEMGWYRQAPGKEREFVATIAYGGNTNYADSVKGRFTISRDNAKNTVYLQMNSLKPEDTAVYYCAVYTGVYYDRTTGGYVAFEYWGQGTQVTVSS | 200 µg/mL | 200 µg/mL | 25 µg/mL | 6.25 µg/mL | 100 µg/mL | 6.25 µg/mL | 25 µg/mL | 200 µg/mL | 25 µg/mL | 100 µg/mL | 6.25 µg/mL | – | – | – | –
VHH antibody 1D7 (monomeric) (VHH, also called clone 1D7) VHH: EVQLVESGGGLVQAGGSLTLSCAASERTFSYYVMAWFRQAPGKEREFVAGISMSGDSTKYADSVKGRFTISRDNAENTGYLQMNGLKPEDTAVYYCAADRDIRGNFRSWGRGTQVTVSS | 100 µg/mL | 100 µg/mL | 25 µg/mL | 6.25 µg/mL | 200 µg/mL | 50 µg/mL | 100 µg/mL | 50 µg/mL | 12.5 µg/mL | 50 µg/mL | 3.12 µg/mL | 17.7 nM | 0.0311 s⁻¹ | 1.75e+06 M⁻¹ s⁻¹ | no binding
VHH antibody 2R23 (monomeric) (VHH, also called clone 2R23) VHH: QVQLQESGGGLVQAGGSLRLSCAASGYIFWSYGYMGWYRQAPGKERELVATISRGGTTNYADSVKGRFTISRDNAKNTVYLQMNSLKPEDTAVYYCAAGRYAFGYFKYWGQGTQVTVSS | 200 µg/mL | 25 µg/mL | 25 µg/mL | 6.25 µg/mL | 25 µg/mL | 200 µg/mL | 50 µg/mL | 200 µg/mL | 12.5 µg/mL | 100 µg/mL | 12.5 µg/mL | 9.06 nM | 64.6 s⁻¹ | 7.13e+09 M⁻¹ s⁻¹ | –
